Experimental data published in publication PMC12207590, “Substrate Specificity of the Organic Cation Transporters MATE1 and MATE2K and Functional Overlap with OCT1 and OCT2” (Journal of Medicinal Chemistry, 2025).
Where “and” joins values, the source holds several entries; their conditions need not be identical. Equal entries are not always repeated.

Test system: CN(C)CCc1c[nH]c2ccc(C[C@H]3COC(=O)N3)cc12
Experiment: cells, lysate or membranes
Details: other: HEK293, 1 min, net uptake; pH 7.4; 37.0 °C

MATE2K (Homo sapiens), sequence (chain, as listed by the source): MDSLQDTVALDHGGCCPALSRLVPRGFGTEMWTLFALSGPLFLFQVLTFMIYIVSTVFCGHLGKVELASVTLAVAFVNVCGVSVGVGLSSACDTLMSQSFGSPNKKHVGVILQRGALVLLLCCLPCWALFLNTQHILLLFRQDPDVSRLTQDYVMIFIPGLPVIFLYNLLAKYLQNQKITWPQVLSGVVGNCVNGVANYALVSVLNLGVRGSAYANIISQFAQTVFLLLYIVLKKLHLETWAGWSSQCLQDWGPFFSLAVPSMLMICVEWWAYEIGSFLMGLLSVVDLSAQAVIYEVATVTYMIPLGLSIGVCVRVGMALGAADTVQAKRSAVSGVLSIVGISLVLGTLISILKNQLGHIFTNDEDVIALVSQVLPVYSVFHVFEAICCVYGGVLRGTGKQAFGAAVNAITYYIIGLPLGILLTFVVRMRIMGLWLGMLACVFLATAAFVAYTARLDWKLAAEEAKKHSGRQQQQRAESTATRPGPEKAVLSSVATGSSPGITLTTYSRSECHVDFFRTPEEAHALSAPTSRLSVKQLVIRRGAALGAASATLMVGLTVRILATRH

MATE2K (Homo sapiens)
Km: 23.1 µM and 18.3 µM
Vmax: 0.00074 µmol/min/mg and 0.000992 µmol/min/mg
Vmax/Km: 32.1 µL/min/mg and 54.2 µL/min/mg
